Reference: patent US20230192796A1 (published 2023)

Target: T1, Human IL-10Rβ on cells (Daudi, Jurkat, YT-1, THP-1 cell lines; primary human PBMC populations) (human, UniProt Q08334 20-325)
T1 sequence (looked up): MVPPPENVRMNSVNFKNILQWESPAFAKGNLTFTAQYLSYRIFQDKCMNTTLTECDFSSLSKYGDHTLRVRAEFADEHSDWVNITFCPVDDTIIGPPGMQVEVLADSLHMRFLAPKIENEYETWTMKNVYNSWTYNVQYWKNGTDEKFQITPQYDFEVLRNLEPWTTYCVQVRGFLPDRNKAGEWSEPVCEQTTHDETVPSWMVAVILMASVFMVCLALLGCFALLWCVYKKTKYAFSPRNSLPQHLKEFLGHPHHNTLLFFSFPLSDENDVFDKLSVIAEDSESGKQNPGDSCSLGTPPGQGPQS
Experiment: cell-based or functional assay

B1: Affinity matured IL-10 clone 5.1 (Super-10), soluble (ligand)
chain: SPGQGTQSENSCTHFPGYLPNMLRDLRDAFSRVKTFFQMKDQLDNLLLKESLLEDFKGYLGCQALSEMIQFYLEEVMPQAENQDPDIKAHVQSLGENLKDLRLWLRRCHRFLPCENKSKAVEQVKNAFNKLQEKGIYKAMSEFDIFINYIEAYMTMKIRNHHHHHH
B1 was tested, and the “ratio of super-10 to 10-DE STAT3 Emax in Daudi cells” value was > 20 ratio (super-10:10-DE) and the “ratio of super-10 to 10-DE STAT3 Emax in THP-1 cells” value was ~1 ratio (super-10:10-DE).
